Test results from the supplement of paper PMC7125110.
± gives the standard error. For part of these data: This sample holds only a part of the variants without activity.

B1: glmS ribozyme (parent)
chain: AUAAAAGCGCCAGAACUACAGAAAUGUAGUUGACGAGGAGGAGGUUUAUCGAAUUUUCGGCGGAUGCCUCCAAA

Key:
Settings in all cases: with glucosamine-6-phosphate
[1] = variants of: B1; experiment: kcat; higher = faster cleavage; RNA array
Summary of the method: (§1)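 A hybridised Cy3 probe tracked barcoded ribozyme variants, transcribed in situ by E. coli RNA polymerase on sequenced MiSeq chips, at 37 °C. The variants received 40 μM to 10 mM glucosamine-6-phosphate in HEPES/KCl/Mg(OAc)2 buffer. kobs came from decay fits and kcat and KM from weighted Michaelis–Menten fits.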

[2] = variants of: B1; experiment: KM; higher = weaker cofactor use; RNA array
Summary of the method: as §1

[3] = variants of: B1; experiment: self-cleavage kobs at 40 uM GlcN6P; higher = faster cleavage; RNA array
Summary of the method: as §1

[4] = variants of: B1; experiment: self-cleavage kobs at 640 uM GlcN6P; higher = faster cleavage; RNA array
Summary of the method: as §1

[5] = variants of: B1; experiment: self-cleavage kobs at 2500 uM GlcN6P; higher = faster cleavage; RNA array
Summary of the method: as §1

[6] = variants of: B1; experiment: self-cleavage kobs at 10000 uM GlcN6P; higher = faster cleavage; RNA array
Summary of the method: as §1

[7] = variants of: B1; experiment: self-cleavage kobs at 160 uM GlcN6P; higher = faster cleavage; RNA array
Summary of the method: as §1

| Variant | kcat [1] [s⁻¹] | KM [2] [µM] | self-cleavage kobs at 40 uM GlcN6P [3] [s⁻¹] | self-cleavage kobs at 640 uM GlcN6P [4] [s⁻¹] | self-cleavage kobs at 2500 uM GlcN6P [5] [s⁻¹] | self-cleavage kobs at 10000 uM GlcN6P [6] [s⁻¹] | self-cleavage kobs at 160 uM GlcN6P [7] [s⁻¹] |
| --- | --- | --- | --- | --- | --- | --- | --- |
| G40A U47A | 0.00464 ± 0.00058 | 1440 ± 270 | 0.000132 ± 2.1e-05 | 0.00126 ± 0.00024 | 0.0033 ± 0.00065 | 0.00398 ± 0.00077 |  |
| C67U U69A | 4.62e-05 ± 6.3e-06 |  | < 1e-05 | 5e-05 ± 1.8e-05 | 4.79e-05 ± 1.1e-05 | 3.56e-05 ± 1.5e-05 |  |
| U31C U47C | 0.000503 ± 6.2e-05 | 2160 ± 430 |  | 0.000111 ± 2e-05 | 0.000269 ± 5.7e-05 | 0.00042 ± 0.00011 |  |
| U31A U47G | 0.00294 ± 0.0012 |  | 7.57e-05 ± 1.9e-05 | 0.00063 ± 0.00014 | 0.00264 ± 0.00082 | 0.00266 ± 0.00079 | 0.000353 ± 7.9e-05 |
| A52U A53G | 0.000144 ± 7.6e-06 | 2980 ± 430 | < 1e-05 | 3.11e-05 ± 1.3e-05 | 6.31e-05 ± 9.5e-06 | 0.000111 ± 1e-05 |  |
| G13C C34U G35U | < 1e-05 |  | < 1e-05 |  | < 1e-05 | < 1e-05 | < 1e-05 |
| G32U U45G | 0.000699 ± 0.00027 |  |  |  | 6.97e-05 ± 1.1e-05 | 0.000203 ± 2.1e-05 |  |
| A52G C68G | 5.61e-05 ± 9.7e-06 |  |  | 6.55e-05 ± 1.4e-05 | 7.16e-05 ± 1.2e-05 | 4.28e-05 ± 8.7e-06 |  |
| G13A G32A | 0.00473 ± 0.0013 | 4730 ± 1900 | 4.73e-05 ± 7.3e-06 | 0.000518 ± 0.00011 | 0.00129 ± 0.00022 | 0.00362 ± 0.00047 | 0.000204 ± 6.5e-05 |
| G40A U65A | 0.00131 ± 0.0003 | 2690 ± 980 | 3.89e-05 ± 8.4e-06 | 0.000213 ± 4.3e-05 | 0.000615 ± 0.00011 | 0.00106 ± 0.00012 | 7.08e-05 ± 1.3e-05 |
| A15U U46C | 0.000336 ± 2.6e-05 | 1290 ± 210 |  | 0.000111 ± 1.1e-05 | 0.000249 ± 3.3e-05 | 0.000288 ± 2.9e-05 | 2.98e-05 ± 1.3e-05 |
| U45G A64G | 0.00935 ± 0.0026 | 2790 ± 990 | 0.000169 ± 2.8e-05 | 0.00161 ± 0.0003 | 0.00451 ± 0.00092 | 0.00759 ± 0.002 | 0.000411 ± 0.00011 |
| C16G U47C | 0.00027 ± 0.00013 |  |  | 0.000231 ± 7.9e-05 | 0.000192 ± 5.1e-05 |  |  |
| A48U U49G | 1.55e-05 ± 3.7e-06 |  | < 1e-05 |  |  |  |  |
| U65A C68G | 4.89e-05 ± 9e-06 |  |  | 6.22e-05 ± 1e-05 | 4.97e-05 ± 1.2e-05 | 3.81e-05 ± 7.3e-06 | 8.12e-05 ± 1.8e-05 |
| A6U U30C | < 1e-05 |  |  | < 1e-05 | < 1e-05 |  |  |
| G41U C71G | 0.000121 ± 9e-06 | 1780 ± 490 |  | 2.64e-05 ± 1.1e-05 | 8.28e-05 ± 1.7e-05 | 0.000102 ± 9.5e-06 |  |

| Variant | kcat [1] [s⁻¹] | KM [2] [µM] | self-cleavage kobs at 40 uM GlcN6P [3] [s⁻¹] | self-cleavage kobs at 640 uM GlcN6P [4] [s⁻¹] | self-cleavage kobs at 2500 uM GlcN6P [5] [s⁻¹] | self-cleavage kobs at 10000 uM GlcN6P [6] [s⁻¹] | self-cleavage kobs at 160 uM GlcN6P [7] [s⁻¹] |
| --- | --- | --- | --- | --- | --- | --- | --- |
| C11A | 0.000291 ± 2.1e-05 | 2280 ± 280 | < 1e-05 | 6.25e-05 ± 1.7e-06 | 0.000153 ± 3.1e-06 | 0.000236 ± 1.4e-05 | 2.39e-05 ± 2.4e-06 |
| C11G | < 1e-05 | 665 ± 260 | < 1e-05 |  |  | < 1e-05 |  |
| C70U C71A | 0.000245 ± 1.7e-05 | 607 ± 110 |  | 0.00013 ± 1.4e-05 | 0.00018 ± 2.3e-05 | 0.000247 ± 3e-05 | 5.23e-05 ± 9.7e-06 |
| A52C | 2.8e-05 ± 8.9e-07 | 835 ± 150 | < 1e-05 | 1.03e-05 ± 3.3e-06 | 2.17e-05 ± 1.5e-06 | 2.56e-05 ± 1.3e-06 | < 1e-05 |
| G35U U54G C70A | 1.53e-05 ± 4.8e-06 |  |  |  | < 1e-05 |  |  |
| C50U U56G | 1.91e-05 ± 1.3e-06 | 829 ± 360 |  |  |  |  | < 1e-05 |
| A39G G44U | 0.00229 ± 0.0007 | 6340 ± 3000 |  | 0.000198 ± 5e-05 | 0.000853 ± 0.00022 | 0.00136 ± 0.00023 |  |
| C50A A53G | 2.89e-05 ± 3e-06 |  |  |  | 3.53e-05 ± 1.5e-05 | 2.62e-05 ± 9.1e-06 |  |
| G37U C61U | < 1e-05 |  |  |  |  |  |  |
| C10A | < 1e-05 | 559 ± 95 |  |  |  | < 1e-05 |  |
| A12U G13A | 0.0015 ± 0.00056 |  |  | 8.57e-05 ± 1.1e-05 | 0.000208 ± 3.6e-05 | 0.000715 ± 9.5e-05 |  |
| C11U C71A | 0.000412 ± 2.6e-05 | 1790 ± 200 |  | 0.000106 ± 1.5e-05 | 0.00024 ± 4.4e-05 | 0.000354 ± 6.1e-05 | 4.15e-05 ± 1.7e-05 |
| C11G U56G | 1.32e-05 ± 5.5e-06 |  | < 1e-05 | < 1e-05 |  |  |  |
| A39U U46G | 0.00673 ± 0.0011 | 4400 ± 920 | 5.61e-05 ± 1.4e-05 | 0.000968 ± 0.00018 | 0.0023 ± 0.00049 | 0.00476 ± 0.0014 | 0.000227 ± 6.1e-05 |
| A33C G66U | 2.18e-05 ± 4.2e-07 | 2420 ± 190 | < 1e-05 |  |  |  |  |
| G13U C50G A52C | 1.8e-05 ± 3e-06 |  |  |  |  |  |  |
| A12G C68A | 2.58e-05 ± 7.3e-06 |  |  |  | 3.36e-05 ± 9e-06 | 1.95e-05 ± 7.6e-06 |  |
